Results on 2 substances are retold here after paper PMC8617505.

The data set deals with CC1(C)S[C@@H]2[C@H](NC(=O)Cc3ccccc3)C(=O)N2[C@H]1C(=O)O. The experiment in a line: purified protein.

Take (Escherichia coli): the Km is given as 27 ± 4 µM and the kcat/Km was 9e+06 ± 2e+06 M⁻¹ s⁻¹.
As for (Mycobacterium tuberculosis H37Rv), the Km amounted to 72.9 ± 0.8 µM and the kcat/Km came to 640000 ± 10000 M⁻¹ s⁻¹.

Usually Km stands for the substrate concentration at which the rate is half of its maximum. A word on the kcat/Km: it is the second-order rate constant that governs catalysis at low substrate concentration.
